For this data set the following is noted: Archaeoglobus fulgidus (strain ATCC 49558 / DSM 4304 / JCM 9628 / NBRC 100126 / VC-16), pH 7.5, CD, sodium phosphate 20 mM, reversible: no, whole UniProt chain shown.

This is an account of results in FireProtDB (doi:10.1021/bi011146t).

Several values for one entry are separate records, joined by “and”; a condition that tells them apart may be missing. Equal values may be shown once.

B1: wild type, O28558 (protein)
chain: MLDMPIDPVYYQLAEYFDSLPKFDQFSSAREYREAINRIYEERNRQLSQHERVERVEDRTIKGRNGDIRVRVYQQKPDSPVLVYYHGGGFVICSIESHDALCRRIARLSNSTVVSVDYRLAPEHKFPAAVYDCYDATKWVAENAEELRIDPSKIFVGGDSAGGNLAAAVSIMARDSGEDFIKHQILIYPVVNFVAPTPSLLEFGEGLWILDQKIMSWFSEQYFSREEDKFNPLASVIFADLENLPPALIITAEYDPLRDEGEVFGQMLRRAGVEASIVRYRGVLHGFINYYPVLKAARDAINQIAALLVFD
Consider B1, for which, for the setting “20 °C, Urea”, the denaturant m value is 1.65 kcal/mol/M, the “denaturant midpoint (higher = more stable)” value was 7.1 M and the unfolding free energy came to 11.7 kcal/mol. Moreover, the “unfolding enthalpy (van 't Hoff)” value (Thermal) was 103 kcal/mol and 95.6 kcal/mol and 90.8 kcal/mol.
